Source: US20260022175A1 (Chugai, published 2026)
Positions count from the first letter of the chain named.

B1: 04H1389-mFa55/04L1615-mk1 (antibody, mouse IgG2a, kappa)
heavy: EVQLVESGGGLVKPGGSLRLSCAASGFTFSSKTMNWVRQAPGKGLEWVSSISTQSHYIYYAESVKGRFTISRDNAKNSLYLQMNSLRAEDTAVYYCARYGKREDMLWVFDYWGQGTLVTVSSAKTTAPSVYPLAPVCGDTTGSSVTLGCLVKGYFPEPVTLTWNSGSLSSGVHTFPAVLQSDLYTLSSSVTVTSSTWPSQSITCNVAHPASSTKVDKKIEPRGPTIKPCPPCKCPAPNLLGGPDVFIFPPKIKDVLMISLSPIVTCVVVDVSEDDPDVQISWFVNNVEVHTAQTQTHREDYNSTLRVVSALPIQHQDWMSGKEFKCKVNNKDLPAPIERTISKPKGSVRAPQVYVLPPPEEEMTKKQVTLTCMVTDFMPEDIYVEWTNNGKTELNYKNTEPVLDSDGSYFMYSKLRVEKKNWVERNSYSCSVVHEGLHNHHTTKSFSRTPGK
light: DIVMTQSPLSLPVTPGEPASISCQGPSTGVGDYNYVHWYQQKPGQAPRLLIYFTSKKPSGVPDRFSGSGSGTDFTLKISRVEAEDVGVYYCQTYAAPLGPMFGQGTKLEIKRADAAPTVSIFPPSSEQLTSGGASVVCFLNNFYPKDINVKWKIDGSERQNGVLNSWTDQDSKDSTYSMSSTLTLTKDEYERHNSYTCEATHKTSTSPIVKSFNRNEC
notes: Mouse constant regions mFa55 and mk1; also called SW1615-mFa55
B2: 04H1654-mFa55m2P1/04L1610-ml0r (antibody, mouse IgG2a)
heavy: B1 heavy with E1Q, L11V, K13Q, E62R, K65R, D404R
light: QSALTQPPSASGSPGQSVTISCEGPSTGVGDYNWVHWYQQHPGKAPKLMIYFTSKKPSGVPDRFSGSKSGNTASLTVSGLQAEDEADYYCQTYAAPLGPMFGGGTKLTVLGQPKSSPSVTLFPPSSEELETNKATLVCTITDFYPGVVTVDWKVDGTPVTQGMETTQPSKQSNNKYMASSYLTLTARAWERHSSYSCQVTHEGHTVEKSLSRADCS
notes: Mouse constant regions; also called one arm of SW1610-mFa55
B3: 04H1656-mFa55m2N1/04L1612-ml0r (antibody, mouse IgG2a)
heavy: B1 heavy with E1Q, L11V, K13Q, K65R, K101A, K414E
light: B2 light with N33T, W34Y
notes: Mouse constant regions; also called other arm of SW1612-mFa55
B4: 04H1654-mFa55m2P1/04L1612-ml0r (antibody, mouse IgG2a)
heavy: B1 heavy with E1Q, L11V, K13Q, E62R, K65R, D404R
light: B2 light with N33T, W34Y
notes: Mouse constant regions; also called one arm of SW1612-mFa55
B5: 04H1656-mFa55m2N1/04L1610-ml0r (antibody, mouse IgG2a)
heavy: B1 heavy with E1Q, L11V, K13Q, K65R, K101A, K414E
light: B2 light
notes: Mouse constant regions; also called other arm of SW1610-mFa55
B6: 04H1389-G1m/04L1615-k0MT (antibody, human IgG1, kappa)
heavy: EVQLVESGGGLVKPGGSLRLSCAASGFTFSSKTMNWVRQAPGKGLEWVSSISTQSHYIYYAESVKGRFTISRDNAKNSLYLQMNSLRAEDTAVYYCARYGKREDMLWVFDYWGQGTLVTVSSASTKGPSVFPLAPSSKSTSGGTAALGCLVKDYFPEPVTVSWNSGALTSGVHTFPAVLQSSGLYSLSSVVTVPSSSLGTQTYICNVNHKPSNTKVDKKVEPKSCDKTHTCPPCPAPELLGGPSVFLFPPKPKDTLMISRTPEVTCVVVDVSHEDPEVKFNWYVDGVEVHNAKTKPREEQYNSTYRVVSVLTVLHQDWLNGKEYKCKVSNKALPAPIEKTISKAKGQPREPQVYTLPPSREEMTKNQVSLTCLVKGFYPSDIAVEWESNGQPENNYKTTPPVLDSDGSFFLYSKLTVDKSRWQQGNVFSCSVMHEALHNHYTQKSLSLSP
light: DIVMTQSPLSLPVTPGEPASISCQGPSTGVGDYNYVHWYQQKPGQAPRLLIYFTSKKPSGVPDRFSGSGSGTDFTLKISRVEAEDVGVYYCQTYAAPLGPMFGQGTKLEIKRTVAAPSVFIFPPSDEQLKSGTASVVCLLNNFYPREAKVQWKVDNALQSGNSQESVTEQDSKDSTYSLSSTLTLSKADYEKHKVYACEVTHQGLSSPVTKSFNRGEC
B7: 04H1654-G1m/04L1612-lam1 (antibody, human IgG1, lambda)
heavy: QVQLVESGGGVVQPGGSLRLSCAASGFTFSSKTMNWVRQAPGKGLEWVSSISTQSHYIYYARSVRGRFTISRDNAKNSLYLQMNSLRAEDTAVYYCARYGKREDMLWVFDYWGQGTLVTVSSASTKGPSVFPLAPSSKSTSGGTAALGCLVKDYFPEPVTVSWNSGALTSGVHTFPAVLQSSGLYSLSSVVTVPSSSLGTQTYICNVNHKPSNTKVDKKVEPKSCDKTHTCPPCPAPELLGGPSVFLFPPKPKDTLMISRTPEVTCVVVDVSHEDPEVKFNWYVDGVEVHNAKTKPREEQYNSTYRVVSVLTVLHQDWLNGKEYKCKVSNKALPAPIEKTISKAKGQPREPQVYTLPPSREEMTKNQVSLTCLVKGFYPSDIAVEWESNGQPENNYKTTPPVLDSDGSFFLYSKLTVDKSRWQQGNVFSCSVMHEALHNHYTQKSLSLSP
light: QSALTQPPSASGSPGQSVTISCEGPSTGVGDYTYVHWYQQHPGKAPKLMIYFTSKKPSGVPDRFSGSKSGNTASLTVSGLQAEDEADYYCQTYAAPLGPMFGGGTKLTVLGQPKAAPSVTLFPPSSEELQANKATLVCLISDFYPGAVTVAWKADSSPVKAGVETTTPSKQSNNKYAASSYLSLTPEQWKSHRSYSCQVTHEGSTVEKTVAPTECS
B8: 04H1656-G1m/04L1610-lam1 (antibody, human IgG1, lambda)
heavy: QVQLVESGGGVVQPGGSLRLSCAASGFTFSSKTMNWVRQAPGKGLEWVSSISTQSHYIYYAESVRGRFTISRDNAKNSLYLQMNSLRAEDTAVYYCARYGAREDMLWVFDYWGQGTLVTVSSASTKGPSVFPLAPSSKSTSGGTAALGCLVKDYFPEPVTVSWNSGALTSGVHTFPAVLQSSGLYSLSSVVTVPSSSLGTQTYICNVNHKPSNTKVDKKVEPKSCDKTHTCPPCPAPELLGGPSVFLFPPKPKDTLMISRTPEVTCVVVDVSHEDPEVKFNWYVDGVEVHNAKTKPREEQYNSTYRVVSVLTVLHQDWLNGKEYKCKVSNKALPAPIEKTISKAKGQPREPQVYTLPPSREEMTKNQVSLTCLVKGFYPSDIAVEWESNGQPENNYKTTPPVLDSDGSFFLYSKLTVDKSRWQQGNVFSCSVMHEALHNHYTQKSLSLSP
light: B7 light with T33N, Y34W
B9: H240-Kn494/L73-k0//H240-Hl514/L73-k0 (antibody)
heavy 1: QDQLVQSGAEVKKPGASVKVSCKASGFNIKDTYIQWVRQAPGQGLEWMGRIDPLRKQTKYREKFEGRVTITADTSTNTAYMELSSLRSEDTAVYYCVRSGREFDYWGQGTLVTVSSASTKGPSVFPLAPSSKSTSGGTAALGCLVKDYFPEPVTVSWNSGALTSGVHTFPAVLQSSGLYSLSSVVTVPSSSLGTQTYICNVNHKPSNTKVDKKVEPKSCDKTHTCPPCPAPEFQWGPMVFLFPPKPKDVLMISRTPEVTCVVVDVSDEEPEVKFNWYVDGVEVHNAKTKPREEQYNATYRVVSVLPVLHQDWLNGKEYKCKVSNKALPAPEEKTISKAKGQPREPQVCTLPPSRDELTKNQVSLWCLVKGFYPSDIAVEWESNGQPENNYKTTPPVLDSDGSFFLYSKLTVDKSRWQQGNVFSCSVMHEALHNHYTQKSLSLSP
heavy 2: QDQLVQSGAEVKKPGASVKVSCKASGFNIKDTYIQWVRQAPGQGLEWMGRIDPLRKQTKYREKFEGRVTITADTSTNTAYMELSSLRSEDTAVYYCVRSGREFDYWGQGTLVTVSSASTKGPSVFPLAPSSKSTSGGTAALGCLVKDYFPEPVTVSWNSGALTSGVHTFPAVLQSSGLYSLSSVVTVPSSSLGTQTYICNVNHKPSNTKVDKKVEPKSCDKTHTCPPCPAPELLGGPSVFLFPPKPKDVLMISRTPEVTCVVVDVSHEEPEVKFNWYVDGVEVHNAKTKPREEQYNATYRVVSVLPVLHQDWLNGKEYKCKVSNDALPAPEEETISKAKGQPREPQVYTLPPSRCELTKNQVSLSCAVKGFYPSDIAVEWESNGQPENNYKTTPPVLDSDGSFFLVSKLTVDKSRWQQGNVFSCSVMHEALHNHYTQKSLSLSP
light: DIQMTQSPSSLSASVGDRVTITCRASQDIHKYIAWYQQKPGQAPRLLIQYTSTLQPGVPSRFSGSGSGTDYTFTISSLQPEDIATYYCLQYEQLRTFGGGTKVEIKRTVAAPSVFIFPPSDEQLKSGTASVVCLLNNFYPREAKVQWKVDNALQSGNSQESVTEQDSKDSTYSLSSTLTLSKADYEKHKVYACEVTHQGLSSPVTKSFNRGEC
notes: also called EGL-ART10; ART10; copies: 1 + 1 + 2
B10: H240-Kn496/L73-k0//H240-Hl516/L73-k0 (antibody)
heavy 1: B9 heavy 1 with E331I
heavy 2: B9 heavy 2 with E331I
light: B9 light
notes: also called EGL-ART11; ART11; copies: 1 + 1 + 2

The binders below were run against T1, human CTLA4 (human) (assay: SPR, 37C, antibody captured by anti-mouse IgG, ATP 100 uM).
T1 construct: also called hCTLA4; hCTLA4-His-BAP
T1 sequence (chain, as listed by the source limits assumed): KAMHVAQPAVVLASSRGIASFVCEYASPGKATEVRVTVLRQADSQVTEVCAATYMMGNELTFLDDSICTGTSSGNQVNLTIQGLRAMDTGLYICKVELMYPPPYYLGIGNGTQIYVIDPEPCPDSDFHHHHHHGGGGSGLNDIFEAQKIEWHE
Description: (§1) 20 mM ACES (pH 7.4), 150 mM NaCl, 2 mM MgCl₂, 0.05% Tween 20 with ATP added to the desired concentrations was used as the running buffer, and the assay was performed at 37° C. First, Rabbit Anti-Mouse IgG (Thermo Fisher Scientific) was immobilized onto Series S Sensor Chips CM5 (GE Healthcare), and the antibody was captured onto the chip by interacting an antibody solution prepared in an ATP-free running buffer. Next, the binding ability of the antibody to human CTLA4 in the presence or absence of ATP was evaluated by interacting with a human CTLA4 solution prepared in a running buffer with ATP added to the desired concentration, or a human CTLA4 solution prepared in an ATP-free running buffer. Chips were regenerated with 25 mM NaOH and 10 mM Glycine-HCl (pH 1.5) and assay was performed by repeatedly capturing antibodies. The dissociation constant of each antibody for CTLA4 was calculated using Biacore T200 Evaluation Software 2.0. Specifically, the binding rate constant ka (L/mol/s) and the dissociation rate constant kd (1/s) were calculated by global fitting of the sensorgrams obtained by the measurement using the 1:1 Langmuir binding model, and the dissociation constant KD (mol/L) was calculated from those values.

Kd [nM]	Binder
8.7	B1
8.5	B2
10	B3
12	B4
7.4	B5

Each binder was assayed against T1, human CTLA4 (assay: SPR Biacore T200, 37C, antibody captured, ATP 1 uM).
Description: (§2) Biacore T200 was used to measure the binding of the generated antibodies to human CTLA4. 20 mM ACES (pH 7.4), 150 mM NaCl, 2 mM MgCl₂, 0.05% Tween 20 with ATP added to the desired concentration was used as the running buffer, and the assay was performed at 37° C. First, Protein G (CALBIOCHEM) was immobilized onto a Series S Sensor Chip CM3 (GE Healthcare), and the antibodies were captured by interacting an antibody solution prepared in an ATP-free running buffer with the chip. Next, by interacting with a human CTLA4 solution prepared in a running buffer containing ATP to the desired concentration, or a human CTLA4 solution prepared in a running buffer containing no ATP, the binding ability of the antibody to human CTLA4 in the presence or absence of ATP was evaluated. Chips were regenerated with 25 mM NaOH and 10 mM Glycine-HCl (pH 1.5), and assay was performed by repeatedly capturing antibodies. The dissociation constant of each antibody for CTLA4 was calculated using Biacore T200 Evaluation Software 2.0. Specifically, the binding rate constant ka (L/mol/s) and the dissociation rate constant kd (1/s) were calculated by global fitting of the sensorgrams obtained by the measurement, using a 1:1 Langmuir binding model. The dissociation constant KD (mol/L) was calculated from those values. Alternatively, the dissociation constant KD (mol/L) was calculated by the steady state model. In addition, the binding amount of CTLA4 per unit amount of antibody was calculated by correcting the amount of CTLA4 bound as calculated from the sensorgram obtained by the assay with the amount of antibody captured onto the chip surface.

Kd [nM]	Binder
72	B6
200	B7
98	B8

Each binder was assayed against T1, human CTLA4 (assay: SPR Biacore T200, 37C, antibody captured, ADP 10 uM;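 note: antibodies held on a Protein G CM3 chip, human CTLA4 as analyte in ACES pH 7.4 buffer, rates from a global 1:1 Langmuir fit, Kd from rates or steady state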).

Kd [nM]	koff [s⁻¹]	kon [M⁻¹ s⁻¹]	Binder
17	0.003	180000	B6
56	0.005	89000	B7
25	0.0043	170000	B8

Each binder was assayed against T1, human CTLA4 (assay: SPR, 37C, antibody captured by anti-mouse IgG, ATP 1 uM).
Description: as §1

Kd [nM]	Binder
45	B1
58	B2
67	B3
94	B4
47	B5

These binders were tested against T1, human CTLA4 (assay: SPR Biacore T200, 37C, antibody captured, no ATP, steady state model).
Description: Biacore T200 was used to measure the binding of the generated antibodies to human CTLA4. 20 mM ACES (pH 7.4), 150 mM NaCl, 2 mM MgCl₂, 0.05% Tween 20 with ATP added to the desired concentration was used as the running buffer, and the assay was performed at 37° C. First, Protein G (CALBIOCHEM) was immobilized onto a Series S Sensor Chip CM3 (GE Healthcare), and the antibodies were captured by interacting an antibody solution prepared in an ATP-free running buffer with the chip. Next, by interacting with a human CTLA4 solution prepared in a running buffer containing ATP to the desired concentration, or a human CTLA4 solution prepared in a running buffer containing no ATP, the binding ability of the antibody to human CTLA4 in the presence or absence of ATP was evaluated. Chips were regenerated with 25 mM NaOH and 10 mM Glycine-HCl (pH 1.5), and assay was performed by repeatedly capturing antibodies. The dissociation constant of each antibody for CTLA4 was calculated using Biacore T200 Evaluation Software 2.0. Specifically, the binding rate constant ka (L/mol/s) and the dissociation rate constant kd (1/s) were calculated by global fitting of the sensorgrams obtained by the measurement, using a 1:1 Langmuir binding model. The dissociation constant KD (mol/L) was calculated from those values. Alternatively, the dissociation constant KD (mol/L) was calculated by the steady state model.

Kd [nM]	Binder
2000	B6
4800	B7
2200	B8

What follows are binders tested against T1, human CTLA4 (assay: SPR Biacore T200, 37C, antibody captured, ATP 10 uM).
Description: as §2
The binding ability of the generated variants to human CTLA4 in the presence of ADP or AMP was evaluated by Biacore T200 and compared with the binding ability in the presence of ATP.

Kd [nM]	koff [s⁻¹]	kon [M⁻¹ s⁻¹]	Binder
11	0.0015	130000	B6
36	0.0027	74000	B7
15	0.0019	130000	B8

These binders were tested against T1, human CTLA4 (assay: SPR Biacore T200, 37C, antibody captured, ATP 100 uM).

Kd [nM]	Binder
5	B6
11	B7
6.2	B8

What follows are binders tested against T2, mouse CTLA4 extracellular region linked with a His-tag (mCTLA4-His) (mouse, UniProt P09793 36-161) in the same assay as above.

Kd [nM]	Binder
10	B6
18	B7
14	B8

Each binder was assayed against T3, cynomolgus monkey CTLA4 (CyCTLA4-His-BAP) (cynomolgus monkey) in the same assay as above.
T3 sequence (chain, as listed by the source limits assumed): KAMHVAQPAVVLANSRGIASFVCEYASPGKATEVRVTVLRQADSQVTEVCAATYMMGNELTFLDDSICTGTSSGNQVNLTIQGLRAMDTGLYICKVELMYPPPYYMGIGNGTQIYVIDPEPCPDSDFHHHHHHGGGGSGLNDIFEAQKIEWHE

Kd [nM]	Binder
9.3	B6
21	B7
10	B8

Target: T1, human CTLA4
Assay: SPR Biacore T200, 37C, antibody captured, ATP 10 uM
Remark: another data set of the same source
Description: as §2

Kd [nM]	Binder
15	B6
33	B7
19	B8

Target: T1, human CTLA4
Assay: SPR Biacore T200, 37C, antibody captured, ATP 1 uM
Remark: another data set of the same source

Kd [nM]	Binder
58	B6
170	B7
79	B8

What follows are binders tested against T2, mouse CTLA4 extracellular region linked … (assay: SPR Biacore T200, 37C, antibody captured, ATP 1 uM).

Kd [nM]	Binder
160	B6
390	B7
230	B8

What follows are binders tested against T3, cynomolgus monkey CTLA4 … (assay: SPR Biacore T200, 37C, antibody captured, ATP 1 uM).

Kd [nM]	Binder
110	B6
310	B7
120	B8

Target: T1, human CTLA4
Assay: SPR Biacore T200, 37C, antibody captured, ATP 10 uM
Remark: another data set of the same source

Kd [nM]	Binder
12	B6
30	B7
16	B8

These binders were tested against T2, mouse CTLA4 extracellular region linked … in the same assay as above.

Kd [nM]	Binder
26	B6
48	B7
37	B8

These binders were tested against T3, cynomolgus monkey CTLA4 … in the same assay as above.

Kd [nM]	Binder
21	B6
54	B7
26	B8

What follows are binders tested against T1, human CTLA4 (assay: SPR Biacore T200, 37C, antibody captured, AMP 10 uM).

Kd [nM]	koff [s⁻¹]	kon [M⁻¹ s⁻¹]	Binder
55	0.0097	170000	B6
170	0.016	94000	B7
82	0.014	170000	B8

The binders below were run against T4, human C1q protein (Calbiochem) (human, UniProt P02745 23-245; P02746 28-253; P02747 29-245) (assay: ELISA, antibody on the plate, hC1q 3 µg/mL).
T4 construct: bought; also called hC1q
T4 sequence (P02745 23-245 limits assumed, chain 1 of 3): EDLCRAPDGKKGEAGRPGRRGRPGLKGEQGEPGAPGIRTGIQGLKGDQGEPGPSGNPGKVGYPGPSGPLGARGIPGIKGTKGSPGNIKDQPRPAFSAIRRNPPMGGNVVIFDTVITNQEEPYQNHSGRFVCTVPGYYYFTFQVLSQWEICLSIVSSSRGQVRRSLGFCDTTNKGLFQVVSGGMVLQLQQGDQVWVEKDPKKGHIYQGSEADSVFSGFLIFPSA
T4 sequence (P02746 28-253 limits assumed, chain 2 of 3): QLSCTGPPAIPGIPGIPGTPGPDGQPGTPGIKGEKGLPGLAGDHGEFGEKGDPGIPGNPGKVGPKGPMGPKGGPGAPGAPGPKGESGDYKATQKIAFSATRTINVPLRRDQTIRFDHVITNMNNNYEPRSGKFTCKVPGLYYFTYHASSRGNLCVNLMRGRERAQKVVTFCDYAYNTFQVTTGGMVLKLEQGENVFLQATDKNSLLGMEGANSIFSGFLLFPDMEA
T4 sequence (P02747 29-245 limits assumed, chain 3 of 3): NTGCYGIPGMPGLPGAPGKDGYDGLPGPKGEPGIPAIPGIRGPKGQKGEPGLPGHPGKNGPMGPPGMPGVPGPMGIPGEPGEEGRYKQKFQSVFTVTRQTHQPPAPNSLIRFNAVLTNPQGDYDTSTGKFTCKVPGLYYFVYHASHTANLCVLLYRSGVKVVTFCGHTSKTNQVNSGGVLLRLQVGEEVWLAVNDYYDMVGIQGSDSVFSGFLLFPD
Description: The antigen used was a human C1q protein (hC1q).
First, a 96-well maxisorp plate (Thermo fisher) was coated at 4° C. overnight with 50 μL of solutions containing each antibody prepared at 30, 10, 3, 1, 0.3, 0.1, and 0.03 μg/mL in PBS. Each well of the plate was washed with Wash buffer to remove the antibody not bound to the plate, and then the wells were blocked with 200 μL of Blocking/dilution Buffer at room temperature for 2 hours or longer. After the Blocking/dilution Buffer was removed from each well, hC1q (Calbiochem) prepared such that the final concentration was 3 μg/mL in Blocking/dilution Buffer was added at 50 μL per well. The plate was then allowed to stand at room temperature for 1 hour to allow hC1q to bind to the antibody within each well. After washing with Wash Buffer, 50 μL of an HRP-conjugated anti-hC1q antibody (AbDSerotec) diluted with Blocking/dilution Buffer was added to each well, and the plate was incubated while standing for 1 hour. After washing with Wash Buffer, TMB single solution (Invitrogen) was added. The color development reaction of the solution in each well was stopped by addition of Stop Buffer, and then the developed color was measured by absorbance at 450 nm and 690 nm.

binding result	Binder
binds	B9
binds	B10

These binders were tested against T1, human CTLA4 (assay: SPR, 37C, antibody captured by anti-mouse IgG, ATP 10 uM).
Description: as §1

Kd [nM]	Binder
15	B1
17	B2
20	B3
29	B4
13	B5
